Results as given in patent US20170015742A1 (published 2017).
Numbering of substitutions follows the chain as printed.

B1: hBDI-9E8.12 (antibody, V domains shown)
VH: EVQLVESGGGLVQPGGSLRLSCAFSGFSLSTYGMGVGWIRQAPGKGLEWLANIWWDDDKYYNPSLKNRLTISKDTSKNQAYLQINSLRAEDTAVYYCARIESIGTTYSFDYWGQGTLVTVSS
VL: DFQLTQSPSSLSASVGDRVTITCERSSGDIGDSYVSWYQQKPGKAPKNVIYADDQRPSGVPSRFSGSGSGNSASLTISSLQPEDFATYYCQSYDINIDIVFGQGTKVEIK
B2: hBDI-5H1.10 (antibody, V domains shown)
VH: EVTLRESGPALVKPTQTLTLTCTFSGFSLSTFGMGVGWIRQPPGKALEWLANIWWDDDKYYNPSLKNRLTISKDTSKNQAVLTITNMDPVDTATYYCARISTGISSYYVMDAWGQGTTVTVSS
VL: B1 VL with S33T, A52G, D53N, S74T, Y89F, I95S, N96D
B3: hBDI-5H1.13 (antibody, V domains shown)
VH: B2 VH with R5K
VL: B1 VL with S33T, A52G, D53N, S74T, Y89F, I95S, N96D
B4: hBDI-5H1.12 (antibody, V domains shown)
VH: EVQLVESGGGLVQPGGSLRLSCAFSGFSLSTFGMGVGWIRQAPGKGLEWLANIWWDDDKYYNPSLKNRLTISKDTSKNQAYLQINSLRAEDTAVYYCARISTGISSYYVMDAWGQGTLVTVSS
VL: B1 VL with S33T, A52G, D53N, S74T, Y89F, I95S, N96D
B5: hBDI-9E8.1 (antibody, V domains shown)
VH: EVTLRESGPALVKPTQTLTLTCTFSGFSLSTYGMGVGWIRQPPGKALEWLANIWWDDDKYYNPSLKNRLTISKDTSKNQVVLTMTNMDPVDTATYYCARIESIGTTYSFDYWGQGTMVTVSS
VL: NFMLTQPHSVSESPGKTVTISCERSSGDIGDSYVSWYQQRPGSSPTTVIYADDQRPSGVPDRFSGSIDSSSNSASLTISGLKTEDEADYYCQSYDINIDIVFGGGTKLTVL
B6: hBDI-9E8.10 (antibody, V domains shown)
VH: B5 VH with V80A, M84I, M117T
VL: B1 VL
B7: hBDI-9E8.3 (antibody, V domains shown)
VH: B5 VH
VL: EIVLTQSPGTLSLSPGERATLSCERSSGDIGDSYVSWYQQKPGQAPRLLIYADDQRPSGIPDRFSGSGSGTDFTLTISRLEPEDFAVYYCQSYDINIDIVFGGGTKVEIK
B8: hBDI-5H1.1 (antibody, V domains shown)
VH: B2 VH with A80V, I84M
VL: B5 VL with S32T, A51G, D52N, I96S, N97D
B9: hBDI-9E8.9 (antibody, V domains shown)
VH: B5 VH with V80A, M84I, M117T
VL: DFVLTQSPDSLAVSLGERATINCERSSGDIGDSYVSWYQQKPGQPPKNVIYADDQRPSGVPDRFSGSGSGNSASLTISSLQAEDVAVYFCQSYDINIDIVFGGGTKVEIK
B10: hBDI-9E8.4 half body (other)
VH: B5 VH
VL: B7 VL with I2F, L49V
B11: hBDI-5H1.6 (antibody, V domains shown)
VH: B2 VH with R5K
VL: B5 VL with S32T, S44P, T47N, A51G, D52N, Y90F, I96S, N97D
B12: hBDI-5H1.2 (antibody, V domains shown)
VH: B2 VH with A80V, I84M
VL: B5 VL with S32T, S44P, T47N, A51G, D52N, Y90F, I96S, N97D
B13: hBDI-9E8.8 (antibody, V domains shown)
VH: B5 VH with A46G, V80A, M84I
VL: B7 VL with I2F, L49V
B14: hBDI-9E8.7 (antibody, V domains shown)
VH: B5 VH with A46G, V80A, M84I
VL: B7 VL
B15: hBDI-5H1.5 (antibody, V domains shown)
VH: B2 VH with R5K
VL: B5 VL with S32T, A51G, D52N, I96S, N97D
B16: hBDI-9E8.2 (antibody, V domains shown)
VH: B5 VH
VL: B5 VL with S44P, T47N, Y90F
B17: hBDI-9E8.6 (antibody, V domains shown)
VH: B5 VH with A46G, V80A, M84I
VL: B5 VL with S44P, T47N, Y90F
B18: hBDI-9E8.5 (antibody, V domains shown)
VH: B5 VH with A46G, V80A, M84I
VL: B5 VL
B19: hBDI-5H1.11 (antibody, V domains shown)
VH: B4 VH
VL: B9 VL with S33T, A52G, D53N, S74T, I95S, N96D
B20: hBDI-5H1.3 (antibody, V domains shown)
VH: B2 VH with A80V, I84M
VL: B7 VL with S33T, A52G, D53N, I95S, N96D
B21: hBDI-5H1.9 (antibody, V domains shown)
VH: B2 VH
VL: B9 VL with S33T, A52G, D53N, S74T, I95S, N96D
B22: hBDI-5H1.7 (antibody, V domains shown)
VH: B2 VH with R5K
VL: B7 VL with S33T, A52G, D53N, I95S, N96D
B23: hBDI-5H1.8 (antibody, V domains shown)
VH: B2 VH with R5K
VL: B7 VL with I2F, S33T, L49V, A52G, D53N, I95S, N96D
B24: hBDI-5H1.17 (antibody, V domains shown)
VH: B2 VH with R5K, A46G, K77N, N78S
VL: B7 VL with I2F, L49V
B25: hBDI-5H1.4 (antibody, V domains shown)
VH: B2 VH with A80V, I84M
VL: B7 VL with I2F, S33T, L49V, A52G, D53N, I95S, N96D
B26: hBDI-5H1.16 (antibody, V domains shown)
VH: B2 VH with R5K, A46G, K77N, N78S
VL: EFVLTQSPGTLSLSPGERATLSCERSSGDIGDTYVSWYQQKPGQPPRNVIYGNDQRPSGVPDRFSGSGSGTDFTLTISRLEPEDFAVYFCQSYDSDIDIVFGGGTKVEIK
B27: 3E2.1_GS_4G8.5 (bispecific antibody, human IgG1, kappa, L234A L235A)
heavy: EVQLVQSGAEVKKPGSSVKVSCKASGYTFTESYMYWVKQAPGQGLELIGRIDPEDGSTDYVEKFKNKATLTADKSTSTAYMELSSLRSEDTAVYFCARFGARSYFYPMDAWGQGTTVTVSSGGGGSGGGGSEIQLVQSGSELKKPGASVKVSCKASGYTFTNYGMYWVRQAPGQGLEYMGWINTETGKPTYADDFKGRFVFSLDTSVSTAYLQISSLKAEDTAVYFCARTNYYYRSYIFYFDYWGQGTMVTVSSASTKGPSVFPLAPSSKSTSGGTAALGCLVKDYFPEPVTVSWNSGALTSGVHTFPAVLQSSGLYSLSSVVTVPSSSLGTQTYICNVNHKPSNTKVDKKVEPKSCDKTHTCPPCPAPEAAGGPSVFLFPPKPKDTLMISRTPEVTCVVVDVSHEDPEVKFNWYVDGVEVHNAKTKPREEQYNSTYRVVSVLTVLHQDWLNGKEYKCKVSNKALPAPIEKTISKAKGQPREPQVYTLPPSREEMTKNQVSLTCLVKGFYPSDIAVEWESNGQPENNYKTTPPVLDSDGSFFLYSKLTVDKSRWQQGNVFSCSVMHEALHNAYTQKSLSLSPGK
light: ETVLTQSPATLSLSPGERATLSCRASESVSTLMHWYQQKPGQQPRLLIYGASNLESGVPARFSGSGSGTDFTLTISSLEPEDFAVYFCQQSWNDPWTFGGGTKVEIKGGSGGGGSGGATQLTQSPSLSASVGDRVTITCRASESVSTHMHWYQQKPGKQPKLLIYGASNLESGVPSRFSGSGSGTDFTLTISSLQPEDFATYFCQQSWNDPFTFGQGTKLEIKRTVAAPSVFIFPPSDEQLKSGTASVVCLLNNFYPREAKVQWKVDNALQSGNSQESVTEQDSKDSTYSLSSTLTLSKADYEKHKVYACEVTHQGLSSPVTKSFNRGEC

Each binder was assayed against recombinant human PDGF-BB (human, UniProt P01127 82-190) (assay: cell-based or functional assay).
Target sequence in this assay (P01127 82-190 limits assumed): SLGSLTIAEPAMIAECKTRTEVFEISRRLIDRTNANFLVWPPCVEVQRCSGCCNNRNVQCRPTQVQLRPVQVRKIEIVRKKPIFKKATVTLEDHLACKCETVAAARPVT

hPDGF-BB IC50 (nM), hPDGF-BB-induced NIH-3T3 cell proliferation [nM] | Binder
0.525 | B1
< 10 | B2
< 10 | B3
< 10 | B4
> 5 | B5
0.562 | B6
1.58 | B7
< 10 | B8
0.574 | B9
> 5 | B10
< 10 | B11
< 10 | B12
0.105 | B13
0.35 | B14
< 10 | B15
> 5 | B16
> 5 | B17
> 5 | B18
< 10 | B19
< 10 | B20
< 10 | B21
< 10 | B22
< 10 | B23
< 10 | B24
< 10 | B25
< 10 | B26

Molecular target: recombinant human PDGF-BB (human, UniProt P01127 82-190)
Assay: cell-based or functional assay
Remark: another data set of the same source
Target sequence in this assay (P01127 82-190 limits assumed): as above

Potency IC50 (nM) NIH-3T3 hPDGF-BB [nM] | Binder
0.38 | B27

The binders below were run against recombinant human VEGF165 (human, UniProt P15692 207-395) (assay: cell-based or functional assay).
Chain of recombinant human VEGF165 (P15692 other isoform, or with tags, fused parts or gaps limits assumed): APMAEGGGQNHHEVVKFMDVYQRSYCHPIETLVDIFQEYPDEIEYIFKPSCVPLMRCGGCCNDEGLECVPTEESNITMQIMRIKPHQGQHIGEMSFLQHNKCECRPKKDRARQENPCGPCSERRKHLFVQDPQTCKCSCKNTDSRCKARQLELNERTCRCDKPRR

Potency IC50 (nM) HMVEC-d hVEGF165 [nM] | Binder
0.743 | B27
